# Test results taken from paper PMC4103857, “Specific Interaction with Cardiolipin Triggers Functional Activation of Dynamin-Related Protein 1” (PLoS ONE, 2014).
# Where “and” joins values, the source holds several entries; their conditions need not be identical. Identical values can stand only once.
# How the values were obtained:
# [1] = target: Dynamin-Related Protein 1 (Drp1) isoform 2 (human); assay: SEC; gel filtration of the purified untagged isoforms; data not shown
# [2] = target: the molecule itself; assay: as above
# [3] = target: the molecule itself; assay: SEC; Drp1 (1 uM) incubated with GTP (1 mM) without liposomes in KCl buffer with 4 mM MgCl2, 30 min, 37 C; Sephadex S200; fractions immunoblotted with anti-Drp1
molecule,measurement,setting,value
Dynamin-Related Protein 1 (Drp1) isoform 2 (natural protein),stoichiometry N,[1],2 and 4
"Dynamin-Related Protein 1 (Drp1) isoform 3 (natural protein, human, UniProt O00429-4 1-699, looked up, ORF amplified by PCR and cloned into pTYB1; numbers count on: isoform 3; also called Variant 3; Isoform-3 WT; source: E. coli Rosetta, purified (chitin resin with thiol-induced cleavage, Q sepharose, Sephadex S200)) MEALIPVINKLQDVFNTVGADIIQLPQIVVVGTQSSGKSSVLESLVGRDLLPRGTGIVTRRPLILQLVHVSQEDKRKTTGEENGVEAEEWGKFLHTKNKLYTDFDEIRQEIENETERISGNNKGVSPEPIHLKIFSPNVVNLTLVDLPGMTKVPVGDQPKDIELQIRELILRFISNPNSIILAVTAANTDMATSEALKISREVDPDGRRTLAVITKLDLMDAGTDAMDVLMGRVIPVKLGIIGVVNRSQLDINNKKSVTDSIRDEYAFLQKKYPSLANRNGTKYLARTLNRLLMHHIRDCLPELKTRINVLAAQYQSLLNSYGEPVDDKSATLLQLITKFATEYCNTIEGTAKYIETSELCGGARICYIFHETFGRTLESVDPLGGLNTIDILTAIRNATGPRPALFVPEVSFELLVKRQIKRLEEPSLRCVELVHEEMQRIIQHCSNYSTQELLRFPKLHDAIVEVVTCLLRKRLPVTNEMVHNLVAIELAYINTKHPDFADACGLMNNNIEEQRRNRLARELPSAVSRDKVASGGGGVGDGVQEPTTGNWRGMLKTSKAEELLAEEKSKPIPIMPASPQKGHAVNLLDVPVPVARKLSAREQRDCEVIERLIKSYFLIVRKNIQDSVPKAVMHFLVNHVKDTLQSELVGQLYKSSLLDDLLTESEDMAQRRKEAADMLKALQGASQIIAEIRETHLW",stoichiometry N,[2],2 and 4
"Drp1 isoform 3 K557-560-569-571A (4KA mutant) (natural protein, human, UniProt O00429-4 1-699, looked up, Dynamin-related protein 1 (Drp1), human, splice variant 3 (lacking 37 residues in the B insert), all four B insert lysines replaced by alanine; numbers count on: isoform 3; also called Drp1-4KA; Drp1 4KA mutant; source: E. coli Rosetta, purified (chitin resin with thiol-induced cleavage, Q sepharose, Sephadex S200)) MEALIPVINKLQDVFNTVGADIIQLPQIVVVGTQSSGKSSVLESLVGRDLLPRGTGIVTRRPLILQLVHVSQEDKRKTTGEENGVEAEEWGKFLHTKNKLYTDFDEIRQEIENETERISGNNKGVSPEPIHLKIFSPNVVNLTLVDLPGMTKVPVGDQPKDIELQIRELILRFISNPNSIILAVTAANTDMATSEALKISREVDPDGRRTLAVITKLDLMDAGTDAMDVLMGRVIPVKLGIIGVVNRSQLDINNKKSVTDSIRDEYAFLQKKYPSLANRNGTKYLARTLNRLLMHHIRDCLPELKTRINVLAAQYQSLLNSYGEPVDDKSATLLQLITKFATEYCNTIEGTAKYIETSELCGGARICYIFHETFGRTLESVDPLGGLNTIDILTAIRNATGPRPALFVPEVSFELLVKRQIKRLEEPSLRCVELVHEEMQRIIQHCSNYSTQELLRFPKLHDAIVEVVTCLLRKRLPVTNEMVHNLVAIELAYINTKHPDFADACGLMNNNIEEQRRNRLARELPSAVSRDKVASGGGGVGDGVQEPTTGNWRGMLATSAAEELLAEEASAPIPIMPASPQKGHAVNLLDVPVPVARKLSAREQRDCEVIERLIKSYFLIVRKNIQDSVPKAVMHFLVNHVKDTLQSELVGQLYKSSLLDDLLTESEDMAQRRKEAADMLKALQGASQIIAEIRETHLW",binding result,[3],binds
